Reference: patent US20100209945A1 (KOREA RESEARCH INSTITUTE OF BIOSCIENCE AND BIOTECHNOLOGY, published 2010)

Tests used:
human originated HIgG1 [1] = target: T1, human originated HIgG1; assay: SPR (Biacore 3000), hybrid of 1a on CM-5 chip, antibody at 100-1,000 nM, nonlinear regression with BIAevaluation
T1 construct: also called human IgG1 (anti CRP) antibody
Procedure: (§1) The antibody solutions containing HIgG1, rabbit IgG, MIgG3 antibodies at the concentrations of 100 nM, 250 nM, 500 nM and 1,000 nM were spilled on the chip surface-treated with the hybrid of 1a of Example <3-1> at the speed of 10 μl/minute to induce the binding reaction and the degree of binding was measured by surface plasmon resonance (SPR) using Biacore 3000.
(§2) As a result, SPR sensor gram values represented in dotted line were obtained. The values were analyzed by nonlinear regression using BIAevaluation software equipped in Biacore 3000 to draw a theoretical line graph (FIG. 4a). From the theoretical graph, kinetic coefficients shown in FIG. 4b were obtained and the overlapping of each dotted line on the line indicates the calculation was correct.

rabbit originated IgG [2] = target: T2, rabbit originated IgG; assay: as above
T2 construct: also called rabbit IgG; rabbit originated antibodies
Procedure: as §1, §2

[3] = target: mouse originated antibody MIgG3; assay: SPR (Biacore 3000), hybrid of 1a on a CM-5 chip, antibody at 100 to 1000 nM, nonlinear regression with BIAevaluation; Kon and Koff printed as NA
Procedure: as §1, §2

human originated HIgG1 [4] = target: T1, human originated HIgG1; assay: SPR (Biacore 3000), hybrid of 1a on a CM-5 chip, antibody at 100 to 1000 nM, nonlinear regression with BIAevaluation
Procedure: as §1, §2

rabbit originated IgG [5] = target: T2, rabbit originated IgG; assay: as above
Procedure: as §1, §2

BSA = target: T3, BSA (UniProt P02769 25-607); assay: SPR (Biacore 3000), peptide hybrid coupled to a dextran CM-5 Au chip; legend: chip of formula 1, paragraph 80: hybrid of 1a
T3 construct: Control protein; also called BSA (control)
T3 sequence (P02769 25-607 limits assumed): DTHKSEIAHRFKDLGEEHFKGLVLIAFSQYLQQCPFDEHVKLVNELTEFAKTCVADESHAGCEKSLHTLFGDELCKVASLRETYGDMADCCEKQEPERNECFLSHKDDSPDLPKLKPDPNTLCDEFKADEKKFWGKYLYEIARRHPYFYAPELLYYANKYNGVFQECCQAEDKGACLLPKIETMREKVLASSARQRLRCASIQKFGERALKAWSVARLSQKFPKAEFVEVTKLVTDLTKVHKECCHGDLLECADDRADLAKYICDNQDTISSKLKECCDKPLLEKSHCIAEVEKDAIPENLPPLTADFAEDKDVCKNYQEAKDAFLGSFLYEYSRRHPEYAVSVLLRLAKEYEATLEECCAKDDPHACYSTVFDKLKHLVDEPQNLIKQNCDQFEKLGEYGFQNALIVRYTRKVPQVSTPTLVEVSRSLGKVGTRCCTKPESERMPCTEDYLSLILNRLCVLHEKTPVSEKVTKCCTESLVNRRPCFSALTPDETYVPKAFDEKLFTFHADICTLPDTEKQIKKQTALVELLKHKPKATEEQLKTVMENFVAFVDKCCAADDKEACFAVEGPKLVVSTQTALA
Procedure: Antibody solutions containing different animal originated antibodies of Example 2 or 5 μg/ml of BSA (control) in PBS were spilled on the chip of Example <3-1> at the speed of 10 μl/minute to bind the antibody to the peptide hybrid on the surface of the chip. The binding capacity was measured by surface plasmon resonance (SPR) using Biacore 3000.

B1: peptide hybrid for protein immobilization represented by formula 1a (H2N(CH2CH2O)2CH2CH2CO-EDDC*AWHLGELVWC*T-CONH2) (peptide)
peptide: EDDCAWHLGELVWCT
modifications: N-terminal H2N(CH2CH2O)2CH2CH2CO- (PEG linker); C-terminal amide (CONH2); disulfide bond between the two Cys (C*)
notes: Synthetic peptide-PEG hybrid; In the assays it was coupled through its terminal amine to a CM-5 chip, magnetic micro beads or a glass plate; also called hybrid of 1a; peptide hybrid of 1a
- Kd (human originated HIgG1 [1]): 85 nM
- Kd (rabbit originated IgG [2]): 305 nM
- Kd [3]: > 20000 nM
- koff (human originated HIgG1 [4]): 0.02 s⁻¹
- kon (human originated HIgG1 [4]): 230000 M⁻¹ s⁻¹
- koff (rabbit originated IgG [5]): 0.043 s⁻¹
- kon (rabbit originated IgG [5]): 140000 M⁻¹ s⁻¹
- binding result (BSA): no binding
